# Residue numbers refer to the chain shown, from its start. Names may count otherwise.
# B1: SQVLKS (ligand)
# chain: APTSSSTKKTQLQLSQLLVLLKSILNGINNYKNPKLTRMLTFKFYMPKKATELKHLQCLEEELKPLEEVLNLAQSKNFHLRPRDLISNINVIVLELKGSETTFMCEYADETATIVEFLNRWITFCQSIISTLT
# B2: M39V, SQVLKA (ligand)
# chain: B1 chain with S23A, M39V
# B3: M39L, SQVLKA (ligand)
# chain: B1 chain with S23A, M39L
# B4: R38G, SQVLKA (ligand)
# chain: B1 chain with S23A, R38G
# B5: G27K, SQVLKA (ligand)
# chain: B1 chain with S23A, G27K
# B6: SQVLKL (ligand)
# chain: B1 chain with S23L
# B7: SQVLKV (ligand)
# chain: B1 chain with S23V
# B8: G27S, SQVLKA (ligand)
# chain: B1 chain with S23A, G27S
# B9: F42K, SQVLKA (ligand)
# chain: B1 chain with S23A, F42K
# B10: SQVLKT (ligand)
# chain: B1 chain with S23T
# B11: R38W, SQVLKA (ligand)
# chain: B1 chain with S23A, R38W
# B12: ΔQ13, SQVLKA (ligand)
# chain: APTSSSTKKTQLLSQLLVLLKAILNGINNYKNPKLTRMLTFKFYMPKKATELKHLQCLEEELKPLEEVLNLAQSKNFHLRPRDLISNINVIVLELKGSETTFMCEYADETATIVEFLNRWITFCQSIISTLT
# B13: ΔG27, SQVLKA (ligand)
# chain: APTSSSTKKTQLQLSQLLVLLKAILNINNYKNPKLTRMLTFKFYMPKKATELKHLQCLEEELKPLEEVLNLAQSKNFHLRPRDLISNINVIVLELKGSETTFMCEYADETATIVEFLNRWITFCQSIISTLT
# Target: T1, orthogonal hCD122 receptor (hoRb), hCD122 with H133D and Y134F (human, UniProt P14784 27-550)
# T1 sequence: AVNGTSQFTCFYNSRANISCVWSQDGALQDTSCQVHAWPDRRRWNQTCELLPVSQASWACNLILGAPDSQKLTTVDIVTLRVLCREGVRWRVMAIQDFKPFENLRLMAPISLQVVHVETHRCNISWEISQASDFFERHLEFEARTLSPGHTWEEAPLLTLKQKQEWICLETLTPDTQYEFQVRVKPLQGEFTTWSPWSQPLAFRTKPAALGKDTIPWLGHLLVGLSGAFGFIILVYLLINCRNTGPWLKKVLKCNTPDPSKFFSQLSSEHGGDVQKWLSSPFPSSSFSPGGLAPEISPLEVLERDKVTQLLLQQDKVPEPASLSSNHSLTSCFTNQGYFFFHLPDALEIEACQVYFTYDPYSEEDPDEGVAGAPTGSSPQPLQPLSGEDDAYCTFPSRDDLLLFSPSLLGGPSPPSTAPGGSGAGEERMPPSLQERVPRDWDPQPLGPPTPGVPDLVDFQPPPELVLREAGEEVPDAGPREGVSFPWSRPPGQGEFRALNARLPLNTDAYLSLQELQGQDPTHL
# Test: cell-based or functional assay
# For Relative Proliferation Fold Change 3F8 1:10 in this document: reference of the scale not given here.
# For Relative Proliferation Fold Change 3F8 1:2 in this document: reference of the scale not given here.
# For Relative Proliferation Fold Change 3F8 1:50 in this document: reference of the scale not given here.
# For Relative Proliferation Fold Change NKL 1:10 in this document: reference of the scale not given here.
# For Relative Proliferation Fold Change NKL 1:2 in this document: reference of the scale not given here.
# For Relative Proliferation Fold Change NKL 1:50 in this document: reference of the scale not given here.
Binder,NKL Ortho Proliferation Signal 1:2,NKL Ortho Proliferation Signal 1:10,NKL Ortho Proliferation Signal 1:50,Relative Proliferation Fold Change NKL 1:2 [fold],Relative Proliferation Fold Change NKL 1:10 [fold],Relative Proliferation Fold Change NKL 1:50 [fold]
B1,56200,59400,29000,4.79,3.99,2.11
B2,42800,31300,15300,2.72,1.85,0.92
B3,57600,44100,21800,4.47,2.84,1.49
B4,20100,18100,9740,1.78,1.19,0.67
B5,36300,30600,15200,2.93,1.94,1.03
B6,59700,67100,32700,4.69,4.38,2.26
B7,63400,66100,29900,4.61,4.15,2
B8,48900,41000,20700,4.21,2.94,1.53
B9,11900,10500,8730,0.83,0.6,0.52
B10,61400,63400,33400,4.68,4.52,2.5
B11,36700,23800,11500,2.74,1.51,0.77
B12,26700,20700,11800,2.06,1.39,0.79
B13,46600,31400,14600,3.29,2.05,1.04

# Target: T1, orthogonal hCD122 receptor (hoRb), …
# Test: cell-based or functional assay
# Remark: another data set of the same source
Binder,3F8 Ortho Proliferation Signal 1:2 [cts/min],3F8 Ortho Proliferation Signal 1:10 [cts/min],3F8 Ortho Proliferation Signal 1:50 [cts/min],Relative Proliferation Fold Change 3F8 1:2 [fold],Relative Proliferation Fold Change 3F8 1:10 [fold],Relative Proliferation Fold Change 3F8 1:50 [fold]
B1,43800,55500,26600,90.8,58.3,24.2
B2,29200,22900,9630,110,51.3,16.7
B3,31200,24600,12200,179,76.7,37.1
B4,27200,32100,14200,47.5,21.6,8.42
B5,37800,23700,10300,170,47.9,7.82
B6,40200,37000,8930,43,15.3,5.43
B7,45300,53000,21000,36.1,29.1,20.8
B8,40200,34700,15200,94,33,24.6
B9,10300,5760,1570,43.5,12.7,2.2
B10,46400,54400,28500,22.9,54.9,37.8
B11,40400,41100,24200,94.4,57.3,21.4
B12,37600,26100,12400,102,23.7,7.63
B13,28400,21900,6730,105,30.4,10.2
